Assay results taken from patent US20140335016A1 (PROCLARA BIOSCIENCES, published 2014).

What was measured:
[1] = target: T1, amyloid-β 1-42 fibers (fAβ42) (human, UniProt P05067 672-713); assay: cell-based or functional assay
[2] = target: T1, amyloid-β 1-42 fibers (fAβ42); assay: SPR, fAβ immobilized on the chip, 10^14 phage/mL

T1 sequence (P05067 672-713 limits assumed): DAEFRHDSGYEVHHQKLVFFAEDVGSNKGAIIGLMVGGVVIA

Binder	ThT fluorescence assay, IC50 [1]	Kd [2]
recombinant soluble g3p fragment comprising the N1 and N2 domains, rs-g3p(N1N2), Construct 3 (other) MAETVESCLAKSHTENSFTNVWKDDKTLDRYANYEGCLWNATGVVVCTGDETQCYGTWVPIGLAIPENEGGGSEGGGSEGGGSEGGGTKPPEYGDTPIPGYTYINPLDGTYPPGTEQNPANPNPSLEESQPLNTFMFQNNRFRNRQGALTVYTGTVTQGTDPVKTYYQYTPVSSKAMYDAYWNGKFRDCAFHSGFNEDLFVCEYQGQSSDLPQPPVNAPSGHHHHHH	~20 nM	
M13 filamentous bacteriophage (construct not stated) (other, Whole phage particle; also called M13 phage; wildtype M13) AETVESCLAKPHTENSFTNVWKDDKTLDRYANYEGCLWNATGVVVCTGDETQCYGTWVPIGLAIPENEGGGSEGGGSEGGGSEGGGTKPPEYGDTPIPGYTYINPLDGTYPPGTEQNPANPNPSLEESQPLNTFMFQNNRFRNRQGALTVYTGTVTQGTDPVKTYYQYTPVSSKAMYDAYWNGKFRDCAFHSGFNEDPFVCEYQGQSSDLPQPPVNAGGGSGGGSGGGSEGGGSEGGGSEGGGSEGGGSGGGSGSGDFDYEKMANANKGAMTENADENALQSDAKGKLDSVATDYGAAIDGFIGDVSGLANGNGATGDFAGSNSQMAQVGDGDNSPLMNNFRQYLPSLPQSVECRPFVFSAGKPYEFSIDCDKINLFRGVFAFLLYVATFMYVFSTFANILRNKES		~4 nM
